Reference: US20060014669A1

Biological target: VEGF
Test: cell-based or functional assay

Substance | inhibition of VEGF-induced HUVEC proliferation in vitro, IC50 [µg/mL]
Murine Flk1-Fc (murine Flk1 ectodomain fused to murine IgG2a Fc fragment, adenovirus-expressed) (from UniProt P35918 20-762) (Fc fusion) | 0.1
Murine Flt1(1-3) soluble ectodomain with C-terminal 6xHis tag (adenovirus-expressed) (from UniProt P35969 23-328) (receptor) | 0.005
